PMC6642547, “HERA-GITRL activates T cells and promotes anti-tumor efficacy independent of FcγR-binding functionality” (Journal for Immunotherapy of Cancer, 2019)

Target: T1, HERA-GITRL (hexavalent TNF receptor agonist); single-chain GITRL-receptor-binding-domain fused to a silenced … (human, UniProt Q9UNG2 56-177; Q9UNG2 56-177; Q9UNG2 56-177)
T1 construct: glycine-serine based linker, 8 amino acids in length; GITRL (TNFSF18), human, second copy of E56-S177; GITRL (TNFSF18), human, third copy of E56-S177; also called hexavalent HERA-GITRL; scGITRL-RBD-Fc; not shown: Strep-Tag II, C-terminal, kept
Assay: not stated; binding to and dissociation from the GITR-Fc receptors measured in real time, equilibrium binding constants (KD) calculated; instrument and who was immobilised not told in what was shown
Settings: both partners purified

T1 sequence (Q9UNG2 whole entry, the tested form may be a part, one chain of several): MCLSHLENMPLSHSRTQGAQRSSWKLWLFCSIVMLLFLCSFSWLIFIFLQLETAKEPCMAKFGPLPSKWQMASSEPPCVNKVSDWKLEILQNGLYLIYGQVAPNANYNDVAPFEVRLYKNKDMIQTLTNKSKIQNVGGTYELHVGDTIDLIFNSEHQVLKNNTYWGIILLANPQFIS

- Kd: 0.602 nM
B1: cynomolgus monkey GITR-Fc (Fc fusion)
chain: QRPTGGPGCGPGRLLLGTGKDARCCRIHPTRCCGDYQGEECCSEWDCVCVQPEFHCGNPCCTTCQHHPCPSGQGVQPQGKFSFGFRCVDCALGTFSRGHDGHCKPWTDCTQFGFLTVFPGNKTHNAVCVPGSPPAEPPG
